The values that follow come from article doi:10.1101/2024.05.12.593783.

Assay [1] concerns the target FITC-pCLMBWT peptide (residues 21-50, pThr44) (UniProt Q96GX8). Description: fluorescence polarisation. (Polarisation of emitted light reports the rotation of a fluorescent probe.)
The target in assay [2] is FITC-CLMBWT peptide (residues 21-50), not phosphorylated (UniProt Q96GX8). Description: fluorescence polarisation.

As to “purified, catalytically inactive CNA/B containing CNA_(Trunc+H151Q) (from UniProt Q08209 1-391; P63098 1-170) (complex)”, the Kd (usually the free concentration of one partner at which half of the binding sites on the other are occupied at equilibrium, for simple one-to-one binding) in assay [1] was 14.1 nM; in assay [2] it was 291 nM.
